Test results taken from the DeepSol protein solubility set.

Assay: soluble on expression in E. coli; label from the status in PepcDB or PDB records

MGSDKIHHHHHHMKIAVTGKGGVGKSTIVGMLARALSDEGWRVMAIDADPDANLASAIGVPAERLSALLPISKMTGLARERTGASETTGTHFILNPRVDDIPEQFCVDHAGIKLLLMGTVNHAGSGCVCPEHALVRTLLRHILTKRKECVLIDMEAGIEHFGRGTIEAVDLLVIVIEPGSRSLQTAAQIEGLARDLGIKTICHIANKLASPVDVGFILDRADQFDLLGSIPFDSAIQAADQAGLSCYDLSPACRDKAHALMAALLERVGPTQGVS
soluble on expression in E. coli: not soluble

MFYFRNLDGYTFFSFMKQKPRRNLFIGVPPLEGTCTKEVVHEAIKEILFYSYC
soluble on expression in E. coli: not soluble

MKAVGFLLLLTILTLAYAKKSGDVTELQIGVKYKPQKCDLQAHKGDKIKVHYRGKLTDGTVFDSSFERGDPIEFELGTGQVIPGWDQGLLGACVGEKRKLKIPSKLGYGDNGSPPKIPGGATLIFDTELVAVNGEPSSEAKSKNEL
soluble on expression in E. coli: soluble

MASEGGNSNGGTSGTGTKSEQDPKEGKRFFNFVFNVNKKITDETEMTQDFMNDLKHYQEFDETVTKCAGYLENVFIPYSSKGSKPEEEAFTRLATALGDFKSFVPQAYTAIFENFSTKMKAAGVSRKCHQALQAHDLRHMKKFHTESYEAFVEQRKKFDESRKKMDQAKADVRDAKTTTAIEKKAICYQLTVDDFDQKTEELIKIIEALPKVKQEYVRDIYLILSKHKQFHADMSKFFAASCVL
soluble on expression in E. coli: not soluble

MGSDKIHHHHHHMIEKPNAICLKNRKIIKVTGEEATHFLQALITTDVKKIGLQEIFPGALLSPQGKVLADFLIGKREDGYFIDIFSSLSDLLYKRLLLYKMRTKVEIMQPLQEFVTVSWENETDSLNFYSSFIDKRFPAKEKIIRIYGETPFLASECHDNWNRLRIRYAIPESDKDYEIGKVFPHDINYDQINGLAFNKGCYIGQEVVSRMHHRRAARRRILLVKSQHELIPGANIVAGTKILGSLGTCAANEALALMRIDHIKDAMDHNTPFTVKDVPVTISIAENMNFTFPESTV
soluble on expression in E. coli: not soluble

MLLQNILPFAHCLLRKALPEGGNALDGTAGNGHDTLFLAQTAGIRGKVWAFDIQPQALNNTRCRLQEAGYSNVRLILDGHENLKQYIPKPLDAAIFNFGWLPGGDKSLTTRTETSIAALSATLSLLKENGMLIAVLYPGHENGKQEAEAIEQWAKNLPQEQFAVLRYGFTNRKNSPPYLLVFEKLRQKLEHHHHHH
soluble on expression in E. coli: soluble

MGLSTSNKPLSERIEESKKDVFMQKAVAKAQDAQWEKREGAREALGNWPQWRELGEQIRQHTIQYLPDYLEEFSDNVAKRGGKVFFAQTAEEANEYVKQVVLEKKAKKIVKSKSMVTTEVDIDPMLLGLDDVSVMETDLAEFILQMDDWDEPSHIVFPSIHKNREQIRQVFAKKLGYQGDNDPVNLARCAREVMRKFFLEAEIGITGCNFAIADSGLINLNTNEGNADLTISIPKTQIVLMGMERIVPTMREAEVLDNLLARSAVGQNLTTYVTFAGQKNADESDGPEEFHVVILDNGRSKALGTAFQPVLQCIRCGSCLNVCPVYRHIGGHGYGSIYPGPIGAVLSPILGGYKQFGELPYASSLCGACTETCPVKIPLHELLIEHRKVMTDDLKMKHGFEDFQMRMVGKATGSPAMFKAAMKVDHAAAGILSKQKDITVENMYNHGGYLDKGPGLVKGWTDVRDLPRPPKSSENFRSWFKKHQEGEKND
soluble on expression in E. coli: not soluble

MSVTLHTTSGDIKIELYVDDAPKACENFLALCASDYYNGCIFHRNIKDFMVQTGDPTHSGKGGESIWGGPFEDEFVSALKHDSRGCVSMANNGPDSNRSQFFITYAKQAHLDMKYTLFGKVIDGFDTLEEIETIKVDNKYRPLVQQK
soluble on expression in E. coli: not soluble

MGSDKIHHHHHHMLYVTGITGHSGQWFVKRLISEGYKGRIRCIVLPESDTDFLNKSGLDIDIVSGNLNDQEFLTSTMVGCSTVLHIASIDFSRNVVKAALDNNLDWAILVHTTGRYSKYKSASAEYIEIEEYVLKFRNRMGITVLRPTMIYGSSRDRNMYKLITFLHKIKFFPMFGEGENLMQPVHARDLGNAYYDVIVNRSTTFNKGYNLPGKRPLTYMELVRTVSDTLGRKNVIIKIPLWFSILAARVYNALDKNAIISVEQVLRMQEDKAFDYEDAVRDFSYSPVSFEDGIVEEVNEYLARYNSSRTKQR
soluble on expression in E. coli: not soluble

MSTNLNIEVSINLTEIDVNAQLAEFARFQQVRDDSRYAQDVEREFVLGPIRHHRRQLEPSRSAPLASTEQPVAQATTHPSTENARVPALVLRSGSWRALPVAQGGSSHIRIWPVSRSATTTSTATRHPPFTNTSASTSFAPYQRHRGSALQTSECTICFEKPVDPRGCPKCLKVIGCKKCVKKWFDTSASKACPLCRFEWKLHRDNPDVVKISTLEVLKRQKQNRP
soluble on expression in E. coli: not soluble

MGSSHHHHHHGKTIFVIVPTNEEQVAFLEALAKQDELNFDWQNPPTEPGQPVVILIPSDMVEWFLEMLKAKGIPFTVYVEEGGSENLYFQGGGGGGVNPVVEFVDVGCAFGGMLFSLAAVFPATCMMGLEIRPKVVSFAQEKALALRQENAASLTQHYRNVWFEQMNVMKFGSNCFTKGQLSRLFFCYPDPHWKRKNIRRRIISPGLVQEYAYWLRHGGLVYTVSDVAELEEWMVQCLDDSPLFRRLAEAELCTPEHKQVLEIVTGASEDAQRTARKGLQKHFAVHMRI
soluble on expression in E. coli: not soluble

MGSDKIHHHHHHMQIDKQQVGNRIHQLRIAAGLSMAKLASAIGLAGKSTINDWEKGRTLANADRLAKVAAYFDVSTNYLLYGSLTEYVTAVFQNGGLNHSEFNVLLWEYVDLTTTNPNILSSDLFSSASQTEQGVSDPTKIAAALITPTINNAIRQIVPEIVQHYQQTTTYPEPQAVIQAGCYVFRHRIQIIRRTFTGKYNRIVRLLDNVDLYEKLQPDDDLKAYLNQTTGPKTQVQNGYSLDEKYQRQMNKVITEFHQALNRINDAYQAELMACGQGQAHSAAD
soluble on expression in E. coli: not soluble

MGSDKIHHHHHHMTGAQPVILGDMPSLSKLYVNAAATAARRRVLGTGTGISLPPCGHEVRGVVADVGNLTAFQHLVGETASDTLPAGFIHALAFPVSMSVMNRDDFPLPLLGMVHLKNKVEQHGTILFTEALDITSWAESLRGHRAGTQVDIVAEVRRSGDAKVLWKGTSTYLAKGVFLPGIDKPSVPAPPATFSAPDPTALWELGVDTGRAYAAVSGDFNPIHLSVLSAKALGLRRSIAHGMYLASRALADVGAVKGESFSWEVSFETPVFLPARVALDISSVDSPSGAWQHSDYAAWNPRSGRRHFSGSVTALQGQD
soluble on expression in E. coli: not soluble

MKIMAICGSGLGSSFMVEMNIKKVLKKLNIDAEVEHSDLSSATPGAADLFVMAKDIAASASVPESQLVVINNIIDINELETQLRAWFAKQ
soluble on expression in E. coli: not soluble

MVMEYLVLEKRLKRLREVLEKRQKDLIVFADNVKNEHNFSAIVRTCDAVGVLYLYYYHAEGKKAKINEGITQGSHKWVFIEKVDNPVQKLLEFKNRGFQIVATWLSKESVNFREVDYTKPTVLVVGNELQGVSPEIVEIADKKIVIPMYGMAQSLNVSVATGIILYEAQRQREEKGMYSRPSLSEEEIQKILKKWAYEDVIKERKRTLSTS
soluble on expression in E. coli: soluble

MGSDKIHHHHHHMATLSRLFIHPVKSMRGIGLTHALADISGLAFDRIFMVTEPDGTFITARQFPQMVRFTPSPLHDGLHLTAPDGSSALVRFTDFTPQDAPTEVWGNHFTARVAPTAINQWLSGFFSRDVQLRWVGPQLTRRVKRHNAVPLGFADGYPYLLTNEASLRDLQQRCPAGVQMEQFRPNLVVSGVAAWEEDSWKVLRIGDVIFDVVKPCSRCIFTTVSPEKGQKHPSGEPLATLQAFRTALDNGDVDFGQNLIARNSGVIRVGDEVEILATAPAKAYGATTVDNSVTPEKHPDASVTIDWQGQTFCGNNQQVLLEQLENQGIRIPYSCRAGICGCCRIRLLEGEVSPLKKSAMGDDGTILSCSCVPKTALRLEN
soluble on expression in E. coli: not soluble

MTIGIIGSGALGSGIARILASKGISAIISNSRGPESLASLVRELGGSIKAGTAEEAARADIVFAAVRWVDAEKVLSSLPAWEGRIVIDATNPVEFIDPDSPDANDPTNPLAAYGIKAVDLHGKYSSEIFRQFVPGARVVKAFNHLDANVFSAPEVTGGKRVLFYSGDDAAAKTEVRKIIEDTGFVPVDLGTLDVGGPLASLPFGPLAAQNFIRVLEHHHHHH
soluble on expression in E. coli: soluble

MGSDKIHHHHHHMKTAEPQTIDDLERWIKSRGITEVECLVPDLSGIPRGKILPARKFLSCLRDRGLRLPESVFTQTVTGEYPEDDPVDIADSDVYLRPDPRTIRVVPWYEEPTAQVINDCFHRDRSEVHCAPRQVLRNILALYEKQGWKPVVAPELEFYLVRINADPDYPLEPPIGRSGRAETGRQAYGIDAVNEFDPLFEDIYDYAEEQNLDLDTLHHESGSAQMEINFLHGDPMELADQVFLFKRTVRQAALRHNVYATFMAKPLAGQPGSAMHLHQSITDAESGRNILVKKNGEDSDLFRWHIGGLQKYLPHCMLMLAPNVNSYRRFLPDQSAPINMHWGHDNRTVSLRVPYADASARRVENRLSGADANPYLAIAASLACGYLGMIEKIEPTAPITGSAYTRAHNLPRHLPDAIERFERARPLHELLNADFVRVYASVKWAEWDAYQHVISSWEREYLLLNV
soluble on expression in E. coli: not soluble

MGSDKIHHHHHHMIDGKTANEIFDSIRQHIIAGTLRAEDSLPPVRELASELKVNRNTVAAAYKRLITAGLAQSLGRNGTVIKGSPSPVALEGGDPHTPLHDLSGGNPDPQRLPDLSRYFARLSRTPHLYGDAPVSPELHAWAARWLRDATPVAGEIDITSGAIDAIERLLCAHLLPGDSVAVEDPCFLSSINMLRYAGFSASPVSVDSEGMQPEKLERALNQGARAVILTPRAHNPTGCSLSARRAAALQNMLARYPQVVVIIDDHFALLSSSPWQPVIAQTTQHWAVIRSVSKTLGPDLRLAIVASDSATSAKLRLRLNAGSQWVSHLLQDLVYACLTDPEYQHRLTQTRLFYAARQQKLARALQQYGIAISPGDGVNAWLPLDTHSQATAFTLAKSGWLVREGEAFGVSAPSHGLRITLSTLNDSEINTLAADIHQALNR
soluble on expression in E. coli: not soluble

MSLGRHSDNSLQESANHTVLLTSPTNTIPKDSRQRSQQFMQNLQDEICTALEQLDGKASFHQDHWERAEGGEGRTRVIREGRVFEQGGVNFSAVWGNSLPASILAQRPEAAGHEFFATGTSMVLHPRNPYVPTVHLNYRYFEAGPIWWFGGGADLTPYYAFKEDAVHFHQTLKNACDVHNPEYYPTFKRWCDEYFYLRHREEQRGIGGIFFDYQDASGKLYVESQTDSSVAIYSQKVGNVARNWEDIFAFVQSCGQAFLPAYLPIVERRQGIEYGDRQRNFQLYRRGRYVEFNLVYDRGTVFGLQTKGRTESILMSLPPLARWEYCYEPEAGSPEAELTEVFLQPRDWVEGHHHHHH
soluble on expression in E. coli: not soluble

MVNNEYQQLNTLVESDDEADLVIANLVKQLNELKQILVSLDNQEASATAVTDKKEEEYNQNQSSFHNFSKETLQKQAKRGFLLLERCSLVGLQQLELEYVNLLGRSFDSYQQKTELLNNLKELVDEHFSDTEKIINTLEKIFDVIGGSEYTPVLNSFFNKLLSDPDPIQREIGLRQFIITLRQRFKKLSQKIDSSLKQIETEAKIATEQVQNSEVMFGPPDIANDHELNLNWPDSETDAILSSMENELEAALLAKHQEEPPLIVTPPSLIKPTVSQPEVEVVTPTNNTNFQPQVDLKPTDLKKQQKKKPLNFITRPVFKSNLPPKLSKDDIVHYAHQLLEKNTHNE
soluble on expression in E. coli: soluble

VERAQDGLYTIDERGVIDFCNDSFAATLGYEPGKLCGTHILEVLAPGEFPKGQAAVEELLEAPDQESTTVDLTFRRKDGAERELSFNHTLTHDEAGNYNGVIGVARDVT
soluble on expression in E. coli: not soluble

IAALSRDITPQQDGSVIVDASITIRHLNRMMGWSLPLIGPRTLSGLIIEHLGYIPPPDSCLVIDHYHIEILRVSDNMIRGVKMIKTN
soluble on expression in E. coli: not soluble
